In US20150218257A1:

Experiments:
Assay in all cases: cell-based or functional assay
[1] = biological target: HIV-1 92RW020 Env on pseudovirus (HIV-1 strain 92RW020)
[2] = biological target: HIV-1 ADA Env (gp160), on transfected 293 cells or on ADA pseudovirus (HIV-1 strain ADA)
[3] = biological target: HIV-1 JR-CSF Env (gp160), on transfected 293/293T cells or on JR-CSF pseudovirus (HIV-1 isolate JR-CSF) (UniProt P20871)
[4] = biological target: HIV-1 JR-CSF(I309A) Env on pseudovirus (HIV-1 isolate JR-CSF) (UniProt P20871)
[5] = biological target: HIV-1 JR-CSF(Y318A) Env on pseudovirus (HIV-1 isolate JR-CSF) (UniProt P20871)
[6] = biological target: HIV-1 JR-FL(E168K) Env on pseudovirus (HIV-1 strain JR-FL)

B1: 1503_H05 (PG16) antibody, sister clone of 1443_C16 (antibody, V domains shown)
VH: QEKLVESGGGVVQPGGSLRLSCLASGFTFHKYGMHWVRQAPGKGLEWVALISDDGMRKYHSDSMWGRVTISRDNSKNTLYLQFSSLKVEDTAMFFCAREAGGPIWHDDVKYYDFNDGYYNYHYMDVWGKGTIVTVSS
VL: QSALTQPASVSGSPGQTITISCNGTRSDVGGFDSVSWYQQSPGKAPKVMVFDVSHRPSGISNRFSGSKSGNTASLTISGLHIEDEGDYFCSSLTDRSHRIFGGGTKVTVLG
IC50 (ug/ml), pseudovirus neutralisation, TZM-bl assay [1]: 0.02 µg/mL | IC50 (ug/ml), pseudovirus neutralisation, TZM-bl assay [2]: 0.003 µg/mL | IC50 (ug/ml), pseudovirus neutralisation, TZM-bl assay [3]: 0.001 µg/mL | IC50 (ug/ml), pseudovirus neutralisation, TZM-bl assay [4]: > 1 µg/mL | IC50 (ug/ml), pseudovirus neutralisation, TZM-bl assay [5]: > 1 µg/mL | IC50 (ug/ml), pseudovirus neutralisation, TZM-bl assay [6]: 0.002 µg/mL

B2: 1456_A12 (PG16) antibody, sister clone of 1443_C16 (antibody, V domains shown)
VH: HEQLVEAGGGVVQPGGSLRLSCLASGFTFHKYGMHWVRQAPGKGLEWVALISDDGMRKYHSDSMWGRVTISRDNSKNTLYLQFSSLRVEDTAMFFCAREAGGPIWHDDVKYYDFNDGYYNYHYMDVWGKGTKVTVSS
VL: QSALTQPASVSGSPGQTITISCNGTSRDVGGFDSVSWYQQSPGKAPKVMVFDVSHRPSGMSNRFSGSKSGNTASLTISGLHIEDEGDYFCSSLTDRSHRIFGGGTKLTVLG
IC50 (ug/ml), pseudovirus neutralisation, TZM-bl assay [1]: 0.05 µg/mL | IC50 (ug/ml), pseudovirus neutralisation, TZM-bl assay [2]: 0.005 µg/mL | IC50 (ug/ml), pseudovirus neutralisation, TZM-bl assay [3]: 0.001 µg/mL | IC50 (ug/ml), pseudovirus neutralisation, TZM-bl assay [4]: > 1 µg/mL | IC50 (ug/ml), pseudovirus neutralisation, TZM-bl assay [5]: > 1 µg/mL | IC50 (ug/ml), pseudovirus neutralisation, TZM-bl assay [6]: 0.003 µg/mL

B3: 1469_M23 (PG16) antibody, sister clone of 1443_C16 (antibody, V domains shown)
VH: QEKLVESGGGVVQPGGSLRLSCLASGFTFHKYGMHWVRQAPGKGLEWVALISDDGMRKYHSDSMWGRVTISRDNSKNTLYLQFSSLKVEDTAMFFCAREAGGPIWHDDVKYYDFNDGYYNYHYMDVWGKGTTVTVSS
VL: QSALTQPASVSGSPGQTITISCNGTRSDVGGFDSVSWYQQSPGRAPKVMVFDVSHRPSGISNRFSGSKSGNTASLTISGLHIEDEGDYFCSSLTDRSHRIFGGGTKLTVLG
IC50 (ug/ml), pseudovirus neutralisation, TZM-bl assay [1]: 0.05 µg/mL | IC50 (ug/ml), pseudovirus neutralisation, TZM-bl assay [2]: 0.005 µg/mL | IC50 (ug/ml), pseudovirus neutralisation, TZM-bl assay [3]: 0.002 µg/mL | IC50 (ug/ml), pseudovirus neutralisation, TZM-bl assay [4]: > 1 µg/mL | IC50 (ug/ml), pseudovirus neutralisation, TZM-bl assay [5]: > 1 µg/mL | IC50 (ug/ml), pseudovirus neutralisation, TZM-bl assay [6]: 0.005 µg/mL

B4: 1489_I13 (PG16) antibody, sister clone of 1443_C16 (antibody, V domains shown)
VH: QEQLLESGGGVVQPGGSLRLSCLASGFTFHKYGMHWVRQAPGKGLEWVALISDDGMRKYHSNSMWGRVTISRDNSKNTLYLQFSSLKVEDTAMFFCAREAGGPIWHDDVKYYDFNDGYYNYHYMDVWGKGTTVTVSS
VL: QSALTQPASVSGSPGQTITISCNGTSSDVGGFDSVSWYQQSPGKAPKVMVFDVSHRPSGISNRFSGSKSGNTASLTISGLHIEDEGDYFCSSLTDRSHRIFGGGTKVTVLG
IC50 (ug/ml), pseudovirus neutralisation, TZM-bl assay [1]: 0.03 µg/mL | IC50 (ug/ml), pseudovirus neutralisation, TZM-bl assay [2]: 0.008 µg/mL | IC50 (ug/ml), pseudovirus neutralisation, TZM-bl assay [3]: 0.002 µg/mL | IC50 (ug/ml), pseudovirus neutralisation, TZM-bl assay [4]: > 1 µg/mL | IC50 (ug/ml), pseudovirus neutralisation, TZM-bl assay [5]: > 1 µg/mL | IC50 (ug/ml), pseudovirus neutralisation, TZM-bl assay [6]: 0.005 µg/mL
